Source: patent US20160151452A1

Assays:
EphB1-Fc = assay: SPR, cupredoxin immobilised on CM5 chip, 100 nM Eph-Fc injected
EphA8-Fc = assay: as above
Sequence of EphA8-Fc (O09127 27-541): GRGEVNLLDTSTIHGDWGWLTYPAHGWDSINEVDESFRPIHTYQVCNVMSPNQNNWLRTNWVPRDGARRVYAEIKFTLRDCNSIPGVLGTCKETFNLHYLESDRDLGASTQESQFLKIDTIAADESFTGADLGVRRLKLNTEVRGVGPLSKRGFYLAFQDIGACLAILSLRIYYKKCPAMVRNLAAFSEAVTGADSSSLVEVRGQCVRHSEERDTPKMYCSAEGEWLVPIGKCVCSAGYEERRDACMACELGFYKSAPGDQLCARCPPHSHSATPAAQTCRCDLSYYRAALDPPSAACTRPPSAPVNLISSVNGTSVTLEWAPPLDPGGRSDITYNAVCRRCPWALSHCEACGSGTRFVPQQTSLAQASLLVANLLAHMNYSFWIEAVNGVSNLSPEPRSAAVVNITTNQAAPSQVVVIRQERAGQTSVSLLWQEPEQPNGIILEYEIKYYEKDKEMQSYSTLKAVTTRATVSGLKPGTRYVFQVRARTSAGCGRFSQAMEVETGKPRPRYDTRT

Sequence of EphB1-Fc (P09759 18-540): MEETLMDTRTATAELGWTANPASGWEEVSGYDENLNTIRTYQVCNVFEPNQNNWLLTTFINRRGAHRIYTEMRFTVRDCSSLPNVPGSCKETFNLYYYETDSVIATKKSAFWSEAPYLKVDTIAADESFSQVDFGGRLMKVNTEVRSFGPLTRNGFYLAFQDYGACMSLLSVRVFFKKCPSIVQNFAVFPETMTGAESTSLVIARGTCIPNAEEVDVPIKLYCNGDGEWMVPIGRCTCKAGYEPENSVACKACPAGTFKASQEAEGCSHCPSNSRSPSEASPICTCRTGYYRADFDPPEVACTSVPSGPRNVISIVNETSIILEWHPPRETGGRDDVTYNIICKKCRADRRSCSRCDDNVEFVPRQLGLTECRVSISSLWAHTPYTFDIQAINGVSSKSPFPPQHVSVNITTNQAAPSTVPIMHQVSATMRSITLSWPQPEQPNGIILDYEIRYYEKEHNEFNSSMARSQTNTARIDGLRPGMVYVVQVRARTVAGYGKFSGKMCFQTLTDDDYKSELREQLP

B1: rusticyanin from Thiobacillus ferrooxidans (protein)
chain: GTLDTTWKEATLPQVKAMLEKDTGKVSGDTVTYSGKTVHVVAAAVLPGFPFPSFEVHDKKNPTLEIPAGATVDVTFINTNKGFGHSFDITKKGPPYAVMPVIDPIVAGTGFSPVPKDGKFGYTDFTWHPTAGTYYYVCQIPGHAATGMFGKIVVK
Req (saturating resonance) (EphB1-Fc): 79 RU
Req (saturating resonance) (EphA8-Fc): 79 RU
